Measurements as given in the DeepSol protein solubility set.

Test: soluble on expression in E. coli; label from the status in PepcDB or PDB records

Sequence	soluble on expression in E. coli
MGSDKIHHHHHHMTIPTSYLNHTDAEAARKARATYRDGLVAPTSGIAPGFTQANMIVLPRDWAFDFLLYAQRNPKPCPVLDVSDPGSPTTLLAPGADLRTDLPLYRIWRDGKLAEETADATSAWAERDDLVAFLIGCSFTFETPMVEAGIEIRHMTDKSNVPMYLTNRPCRPAGRLKGNMVVSMRPIPASRVADAATISGRFPAVHGAPVHVGAPEQIGISDLSKPDFGDAVRIEPGEVPVFWACGVTPQAAVMASGVPFAITHAPGHMFITDIPDTAYHA	not soluble
MGSDKIHHHHHHMTIRSKFALFAGSSSYILLHKILHRGGTSLPGKIAYRIDPTFLEEFRDQIETVIVSGTNGKTLTTALCARVLKKTNRVVVTNNSGSNMIQGIVAALLSQKDKIKKSIRHGTIPIAVLEVDEANVKEVAKILQPTHFVLTNIFRDQMDRYGEIYTTYEKITDGIKTAPKAKVVANGDSPIFARKPYKNQAVYFGFTHKKSVGDLRAPNNTDGVLAPTNDQVLHYHYLTYANLGDYFTKDGSFKRPQLKYSVNKINSLTPSKSEFEIAGNKFTLPLGGLYNIYNALAAYSLGREFQISAEDIFNALNEDSRIFGRQEQLTIGSHLVTIVLIKNPVGANSVIDMMMTDPEEFSLVTLLNANYADGIDTSWIFDAEFEKLHQTALKKIIVGGQRYKDFSVRLKMAGFKNQIVEQDFAKLIDRIKELPTKNVYVAATYTSMLMFREELAKAGLAKESF	not soluble
MGSDKIHHHHHHMTKKLPIGIQTFREIREESYYYVDKTSFALKLAMEGKYYFLSRPRRFGKSLFLDTLAELFAGNEALFHGLYCHDRWDWSVRYPIIRLSFAEGWLESRAQLDKRICWLLEQNQQRLGVTCKQESDIPGSFAELLQNAEAKYGQRCVVLVDEYDKPILDNITEPEIARAMREGLRNLYSVIKGQDAHIRFAFLTGVSKFSKVSIFSGLNNLNDITIDADYSAICGYTDEDVDTVFAPELPGLDRQQIQDWYNGYNWTGQPVYNPFDLLLLFDKREFRAYWFETGTPTFLVDWLMQRGYFTPSLSRQYSSLELLSAFDVDHIEPEALLFQTGYTTLQGVEEYLPGQRIYWLGYPNKEVQISLNNALLPALGIEGQKVLTHRIRLLELLRANNFAGLQQLFTSFFASIPHDWYRNNPIAQYEGYYASVFYSHFAALGLDIVVEDTTHHGRIDMAVTFNANVYLFEFKVVELVPEGHALEQLKTKGYAEKYKIRNEPIYLIGAEFSKDSRSVVAFDVELFA	not soluble
MGSDKIHHHHHHMTKSLITGANGFVGSAVTRCLLEAGHEVRCLVRPGSDRRNLDKLPVEISEGDLRSASSLKRAVAGCDNLFHVAADYRLWVPNPDTMYEINVKGTRALVLAAAEAGMKRMVYTSSVATLGTAENGVPADEDTPSSLGSMCGHYKRSKFMAEEIVQQMTREHDLPMVIVNPSTPIGPRDIKPTPTGRLVVDTLRNRMPAYVNTGLNIVHADDIAEGHLLAYKHGKPGERYILGGENMTLLQILQKIDEIRGRRIRRLGLPVKLMVPAAWLMEKMSTVTKVEPRATVDSVSMAKKKMFYSSDKAVRELGYRYRPAAAALEDAMNWFQANGYCG	not soluble
MGSDKIHHHHHHMTLGIAFVGSGFSAKFHLRGLVGVRNVEVKGVYSRNLNSSKEFAMLSEQLGLGKPKVYSDISKMLSDKEINAVWLTVPNDVHLEYTKLIAEEVSQGRSNIHGITIEKPLARNVKEAKEMIRLVEKAGLLHGYLENQIFMPSVVRAREAIWEIGSRNSGRPYLARAAEEHSGPHNSWFWRPTISGGGALIDMTCHSLEATRFLLTDPAKTKSSLKPKTVYAETKTLKWNKKEYAQYLKEKYNVDFLKEPAEDYALTIVTYEDDLGNSVLAETRTSWNYVGPGLRLSVEVLGPEYSVNINTLQSELSVFFSRNIKLPQSEAFVEKQNADQGLMPIILDEAVVYGYQGEDRHMVESFISRKMPFENWYDGLLIVQLMMHAYLSAENGRKISFDPQKVEDFIPKVARGLYSAF	not soluble
MGSDKIHHHHHHMTLVSTLSFLKKLNKNNNKEWFDKNRSAYEEAKKEVKALVQLVIEKTAVFDPSIASLEPKDCMFRINRDVRFSKDKSPYKTNMGFMIAPGGKKSIKGCYYVHIEPGNCFIAGGIWMPMPEHLKLIRQEIDYNGDALKKIFSSKDVKKYFSDFDEESKLIRMPKDYEETHPYAEWLKLKSFTVTFPIDEAIFSDKKVVEEITKPFKGIHALNAFLNGALDS	not soluble
MGSDKIHHHHHHMTMPTNQCPWRMQVHHITQETPDVWTISLICHDYYPYRAGQYALVSVRNSAETLRAYTISSTPGVSEYITLTVRRIDDGVGSQWLTRDVKRGDYLWLSDAMGEFTCDDKAEDKFLLLAAGCGVTPIMSMRRWLAKNRPQADVRVIYNVRTPQDVIFADEWRNYPVTLVAENNVTEGFIAGRLTRELLAGVPDLASRTVMTCGPAPYMDWVEQEVKALGVTRFFKEKFFTPVAEAATSGLKFTKLQPAREFYAPVGTTLLEALESNNVPVVAACRAGVCGCCKTKVVSGEYTVSSTMTLTDAEIAEGYVLACSCHPQGDLVLA	not soluble
MGSDKIHHHHHHMTPIQSGILLEHRRFAIFMEAMIQGEFDAIRQGCKKFCQTLQELQQQYPDAGLGAVLAFGNDVWRDLDCNHCAAELKPFTPLGKGLAPATQRDLLIHIQSLRHDVNFTLAQAALAAFGSAIRIEEETHGFRWVEDRDLSGFIDGTENPQGDARHAVAIIPEGQPDAGGSYVFTQRWEHNLKQLQRFSVEQQEQMIGRTKQDNEELSSDERPVTSHLSRVDLKEDGKGLKILRQSLPYGTASGKNGLYFVAYCARLHNIEQQLLSMFGGRDGKRDDMLRFTRAVSGSYFFAPSLDQLLSL	not soluble
MGSDKIHHHHHHMTPKRFAFVIADLYGGGAEKSLLYTAAGLHQRGHTVKVFILRDRIEQPIPDGVTVENLALINRFSKMFSTPLVEKWQAARIARTLDDFAADVVLSCSCDKITRHLRHPNLWFWIKSDISAKFSDPDQRAKAFAKVHRFYTGRNVVAVSQGVKDNLLDVIGLRPAEIRAIYNPYEREPFLRLAEEPAPVPEGEYLINVGTYEPRKRHDRLLRAYKASGVTTPLVLLGKGKGDEEARLRKMIEDMGLAERVILPGYQTNPYPFIRHAKALILTSDAEGLPRALIESLLLGTPVVSVDCPSGPREILAGELADFLVPREDEAALADAIARMDAAPITVTEAHYRPFLKETVLPQFEALARSA	not soluble
MGSDKIHHHHHHMTPRISQKEVNDAVWNACDTFRGVVDASAYKDYVLTMLFLKYISDVWQDNYDTYKAEYGDAPELIEEMMKNERFVLPKDASFYALYERRFEAGNGERIDKALHAIEEANMGKLNDVFQDISFNSTKLGDDKQKNDILRHMLEDFSKPELNLRPSRIGNLDIIGNAYEFLIKHFAASSGKKAGEFYTPPEVSQLIAELVNPQEGDEICDPACGSASLLMKCAKLIKDRFGNRKYALYGQEAIGSTWSLAKMNMFLHSEDNHRIEWGDTLRNPLLLDGDDHLKHFDIVVANPPFSLDKWGHEAAEADRFGRFRRGIPPKTKGDYAFILHMIETLKPGTGRMGVVVPHGVLFRASSEGEIRKQLIKENLLDMVIGLPEKLFYGTGIPAAILVFRKNKKDNNVLFIDASREYQDGKNQNFLRDEDIQKVLDTAKARESVDKYAYLATLEEIRENDFNLNIPRYVDTFEEEEEIDLEAVLKERKELKADLAKLEVEMEGYLKELGYLTGEE	not soluble
MGSDKIHHHHHHMTPTIVFDGGYTLWSAGDDAPLAFMTDGLARRLGTPVFKAFVRHPHASFDRRFGVQTLPNLEHESKAGAAGRWFRGLNFTDPRGELAAVADTVAQADLLIMGAGNFITEVGMDVLRGHLPRFCTMALMAQMAGTPYMLFGLSANVLHNPWAVRAAGWLLRGAAAVTFRERMAVENLRACGVALPEHTLLPDAALGAPRAPQGRGDEILRQEQIPSRTAGLRLALAVRDLSWMGSHAAALYERHQTELINLWCARKDNDVLLVPQCCYHADSGITDDRVLGRTLRGRSRFSDKVHVIEGCYHYDDIESLYTQADCAVATRLHGSVFAARMGIPVVGLAYEDKVRGFFGQLQAEDQCLPWDAPATDILALLDSLMLRVQAVRDHMLHRIEQLQQQLAGYIDIAAALAAPAGDHTP	not soluble
MGSDKIHHHHHHMTQAITMPDNPGADCIIEAGIVLTGLDAGSGLTGLGADGKMTMRHDVGIRVEKGMIAQIGPMEAVGYGNDHLPRFGSRRMIAMPGLVNAHHHFGVTPLMQGVPFAPLELWLPQFRAMRRIDQRLDTLYSAIEMLESGTTTVQHIHSGFSGTPDSWMQTAEATISAYGEIGMRLGYCFMIRDRNILSYEPDADILSRLPAKLRDWIAPQLAAADIPVPRLMEFYTDLRARFMKGSPQHIRMNLAPANLHWCSDNALQTIFETAKAAGGNVHMHLLETERQAEFARRTYGRSAVQHLQKLQCLDANVTLGHGNWMSGEDLDIIASCGCTICHNASSGLRLGSGIAPVNEMRRRGIPVALGIDQSNIADDRDMTLEMKLVWALHRETGLWNDRPDAGAVLQMASEHGAASAGFGGFTGRLEPGWQADIVLMDKDRIARPAINSRTPPVEALLHRGGRHAIEQVFVGGRLVVDGGRVTTVDRDAVMAEIEAILSRPETDAERYAWQAVETLLPHLESSLQQLGLGAGYRRYRYNSMSDQ	not soluble
MGSDKIHHHHHHMTRAELYAVLDRFLAALDARDPTALDWAPGAHHSENNVMLEIGDGVWGTIDRLGDYRLRFADTRTRQVGYFGTVIEPIEESAFTLRLALDEAGRIAECEMLIVRQSDSGIKFENCRYWDKPILHREPEAPVSRQEMVRLSNGYFDTLQRNDGTIHTRFHPDCNRVENGVQTTRNPDFAKIVPVSALGCEEQFRMGNYRYDDDLRARRFPLVDEERGLVLAFGFIDHSGRLREFQLTDGRTVKSPVLRPHSFYISELFKIDHGMIEQIEANFITVPYRMPSPWDLL	not soluble
MGSDKIHHHHHHMTSAYCTVLSKGRLYQAVALFKSLEQVDQDSPIFILCMDEDTHRVLQKLKMKQLNLVPVAALENELLLKLKETRDQSEYCWTMKPIFLQAVLNSNPELERVTYIDGDLFFYADPSPIFENQPDCSVLLSRGDIVIPSFEKEQIDMLQRLLGRYNSGFISFKHDDAGTDCLEWWKERCLEECKNAPGEGKFGDQGYLDYMSELFPNVCDITTPGVNIGHWNYGQHTFSWKDGRIVLEDGSPLIFYHFSGYRIVSINEIKQIHETTRTDLPFVHELYQETLPHIIQHMQTLDPEFNGFASKDDNK	not soluble
MGSDKIHHHHHHMTSEKGIIFNIQHFSIHDGPGIRTTVFLKGCPLRCPWCSNPESQKYKPEQMLDAETKLPMIIGEEKTVEDIISEVKKDIDFYEESGGGLTLSGGEIFAQFEFAKAILKCAKEEGLHTAIETTAFAEHEKFTDLIQYVDFIYTDLKHYNTIRHRKVTGVNNNFIIQNIHYAFTHKKTIVLRIPVIPDFNNSLDDAEHFAKLFNDIQVDKVQLLPFHQFGENKYKFLNRKYEMSGYTALHPEDLYDYQSVFLEHGIDCYF	not soluble
MGSDKIHHHHHHMTSRSPFESFVWQSEIFNCQSNDIDAFYAQLAEEVNRLGLKKNTLGSVDSFAINLYQSASQRSDLPSLLISSGFHGEEAAGPWGMLHFLRGLQPALFERVNLSLLPLVNPTGFKAGHRFNRFGENPNRGFTLENGKPTPNEHTSLEGKLLLEHAQLLCAASRDGILTCHEDVLMNETYVYSFEPTQTPGRFSLGLRDALGQYFKLAKDGFIDECPVTDGVIFNHFDTSFEAFLVRSGAKLAACSETPGQEDFDRRVQANSAAMGQFIAHCAPIL	not soluble
MGSDKIHHHHHHMTTINAANAGTYAFDDQFKVNRMGYGVMQLTGPGTWGPYADPENGVKVVKKALEYGVNFFDTADSYGPWFADRYLAAGLKDAANRDQIFISDKVGQTRQGPNVWTPLGEPRYLRQQVEVSMMTLGIDHEDLVFLHRIDPHYSIADQVGELKKLQDEGKIKHIGLSQVTVDQIKEAQQVAKIDAIENLYNVANHGDDDVVDYAASQKMAFLPWFPLATGELAQAGSVLSTMAQKYQVSPAQIALAWLLKRSDNIIPIPGTSSIEHLRDNVAAANVDLTTADFNGLSQLSVK	not soluble
